Source: PMC10570122 (iScience, 2023)

Columns and labels:
[1] = biological target: T1, SARS-CoV-2 WT soluble RBD (residues 319-541) (SARS-CoV-2 Wuhan-Hu-1, UniProt P0DTC2); assay: ELISA; settings: both partners purified
T1 construct: also called WT RBD; WT D614G RBD gene fragment

[2] = biological target: T2, SARS-CoV-2 WT stabilized soluble spike protein, hexahistidine-tagged (SARS-CoV-2 Wuhan-Hu-1, UniProt P0DTC2, stabilised); assay: BLI; settings: both partners purified
T2 construct: also called WT SARS-CoV-2 S

B1: COVA309-22 monoclonal antibody (human IgG1) (antibody, V domains shown)
VH: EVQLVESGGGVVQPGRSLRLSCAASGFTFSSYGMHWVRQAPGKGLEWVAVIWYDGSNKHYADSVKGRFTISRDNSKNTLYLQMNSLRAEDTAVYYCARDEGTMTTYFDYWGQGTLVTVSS
VL: EIVLTQSPSSLSASVGDRVTITCRASQSISSYLNWYQQKPGKAPKLLIYDASSLQSGVPSRFSGSGSGTDFTLTISSLQPEDFATYYCQQSYSTPPWTFGQGTKVEIK
B1: binds [1]; binds [2].
